Assay results published in article PMC55327 (Genome Biology, 2001).

Assays:
[1] = molecular target: T1, *AatIβ (periplasmic aromatic aminotransferase) (Pseudomonas aeruginosa, UniProt Q9I0V2); assay: aromatic aminotransferase activity assay; type: biochemical; conditions: activity followed through purification
T1 sequence (Q9I0V2 29-374): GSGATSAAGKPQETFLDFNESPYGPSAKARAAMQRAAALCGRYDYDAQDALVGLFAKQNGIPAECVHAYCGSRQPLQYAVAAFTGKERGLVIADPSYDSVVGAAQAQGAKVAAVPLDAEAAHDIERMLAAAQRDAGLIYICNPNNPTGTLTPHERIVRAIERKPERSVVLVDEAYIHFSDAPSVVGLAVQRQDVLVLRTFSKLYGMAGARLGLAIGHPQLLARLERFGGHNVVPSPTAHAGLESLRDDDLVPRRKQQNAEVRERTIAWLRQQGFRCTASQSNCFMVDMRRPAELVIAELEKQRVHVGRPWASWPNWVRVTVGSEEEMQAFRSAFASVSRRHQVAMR

[2] = system: C=C(O[C@@H]1C=C(C(=O)O)C=C[C@H]1O)C(=O)O; assay: purified protein; type: biochemical, Pantoea agglomerans; conditions: 32°C, 40–75 nM enzyme, 0.1 mg/ml bovine serum albumin
[3] = system: C=C(O[C@@H]1C=C(C(=O)O)C=C[C@H]1O)C(=O)O; assay: purified protein; type: biochemical, Salmonella enterica; conditions: 32°C, 40–75 nM enzyme, 0.1 mg/ml bovine serum albumin
purified protein = substrate: C=C(O[C@@H]1C=C(C(=O)O)C=C[C@H]1O)C(=O)O; assay: purified protein; type: biochemical, Pseudomonas aeruginosa; conditions: 32°C, 40–75 nM enzyme, 0.1 mg/ml bovine serum albumin

**Q.** For `N[C@@H](Cc1ccccc1)C(=O)O` [phenylalanine], which “aromatic aminotransferase activity assay” value ([1]; co-substrate α-ketoglutarate) is on record?
**A.** Its value is “phenylalanine and α-ketoglutarate were used as the substrates, unless indicated otherwise”.

**Q.** With `O=C(O)CCC(=O)C(=O)O` [α-ketoglutarate] as the molecule, how does the “aromatic aminotransferase activity assay” value ([1]; co-substrate phenylalanine) read?
**A.** The value was “phenylalanine and α-ketoglutarate were used as the substrates, unless indicated otherwise”.

**Q.** For “*AroQ (Erwinia herbicola periplasmic chorismate mutase) (Pantoea agglomerans)”, which Km [2] is on record?
**A.** The Km was 169 µM.

**Q.** What about the kcat [2] of the same molecule?
**A.** The kcat was 9.7 s⁻¹.

**Q.** Which results are given for “*AroQ (Salmonella typhimurium periplasmic chorismate mutase) (Salmonella enterica subsp. enterica serovar Typhimurium)”?
**A.** Km [3]: 142 µM; kcat [3]: 8.9 s⁻¹

B1: *AroQ (Pseudomonas aeruginosa periplasmic chorismate mutase) (Pseudomonas aeruginosa PAO1) (protein)
chain: QPLSPALQQLLSLSSQRLQLADQVAQSKAQSGKAVQDSPREEQQLQMLAGQAGSHGVGAEQVRLLFAAQIEANKLVQYRLLSRPLPDAGQAVDLERIRSRLNQLNLELLRGYAPALAELRVDDCRPRLNQALQRQVRVDRLDELHAIALSRAAGDLCHWAEL
**Q.** B1 was tested. Which kcat (purified protein) did it give?
**A.** The kcat was 6.4 s⁻¹.
